Results reported in patent US20230374147A1 (HUMMINGBIRD BIOSCIENCE PTE, published 2023).
Read-outs that look alike come from different tables or passages of the source.

Experiments:
[1] = target: T1, recombinant his-tagged human TACI (Sinobiological cat #11937-H08H) (human, UniProt O14836 1-165); test: ELISA, coated Human TACI-His
T1 construct: Bought protein; also called Human TACI-His; huTACI; not shown: His tag
T1 sequence: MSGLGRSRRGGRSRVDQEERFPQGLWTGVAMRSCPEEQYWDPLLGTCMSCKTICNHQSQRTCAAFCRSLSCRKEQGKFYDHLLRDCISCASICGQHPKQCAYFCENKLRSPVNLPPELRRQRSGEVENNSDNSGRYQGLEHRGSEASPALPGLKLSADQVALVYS

[2] = target: T2, Human BCMA-His (Sino Biological, 10620-H08H) (human, UniProt Q02223 1-54); test: ELISA, coated Human BCMA-His
T2 construct: not shown: His tag
T2 sequence: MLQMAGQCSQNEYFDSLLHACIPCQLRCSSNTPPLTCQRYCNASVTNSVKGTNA

[3] = target: T3, His-tagged cynomolgous macaque BCMA (Acro Biosystems, BCA-C52H7) (cynomolgus macaque, UniProt Q02223 1-54 (human entry)); test: ELISA, coated Cyno BCMA-His
T3 construct: Bought protein; also called cyno BCMA; CyBCMA; not shown: His tag

[4] = target: T4, Human HER3-His (Sino Biological, 10201-H08H) (human, UniProt P21860 20-643); test: ELISA, coated His-tagged antigen
T4 construct: Specificity control; also called Human HERS-His

[5] = target: T5, human BCMA expressed on cells (human, UniProt Q02223 1-184); test: flow cytometry, fixed RPMI 8226 cells (BCMA+, TACI+: the cells carry both targets)
T5 construct: the cell line is named under assay; also called wildtype human BCMA
T5 sequence: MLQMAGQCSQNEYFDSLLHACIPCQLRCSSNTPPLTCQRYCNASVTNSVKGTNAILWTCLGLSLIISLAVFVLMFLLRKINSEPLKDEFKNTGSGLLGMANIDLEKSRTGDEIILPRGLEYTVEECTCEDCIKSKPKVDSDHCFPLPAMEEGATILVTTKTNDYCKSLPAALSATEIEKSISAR

[6] = target: T6, Cyno TACI-His (Sino Biological, 90976-C08H) (cynomolgus macaque, UniProt G7PTR7 1-165); test: ELISA, coated Cyno TACI-His
T6 construct: Bought protein; also called cynomolgous macaque TACI; CyTACI
T6 sequence: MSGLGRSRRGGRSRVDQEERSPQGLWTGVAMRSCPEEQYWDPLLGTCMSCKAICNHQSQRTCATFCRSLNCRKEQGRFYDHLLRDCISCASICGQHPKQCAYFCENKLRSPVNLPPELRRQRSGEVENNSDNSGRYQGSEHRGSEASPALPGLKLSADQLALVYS

[7] = target: T5, human BCMA expressed on cells; test: flow cytometry, H929 cells (BCMA+)
[8] = target: T7, His-tagged human BCMA (Acro Biosystems, Cat. #BCA-H522y) (human, UniProt Q02223 1-54); test: HDX-MS of the 1:1 complex against free BCMA
T7 construct: also called huBCMA; P1; not shown: His tag
T7 sequence: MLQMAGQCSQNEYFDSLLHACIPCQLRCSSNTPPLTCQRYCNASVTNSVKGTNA

[9] = target: T8, cynomolgous macaque BCMA expressed on CHOK1 cells; test: flow cytometry, CHOK1 cells transiently expressing cynomolgus BCMA
T8 construct: also called cyno BCMA on cells

[10] = target: T1, recombinant his-tagged human TACI …; test: ELISA, coated His-tagged human TACI
[11] = target: T3, His-tagged cynomolgous macaque BCMA …; test: BLI, His-tagged cynomolgus BCMA on HIS1K tip
[12] = target: T3, His-tagged cynomolgous macaque BCMA …; test: ELISA, coated His-tagged cynomolgus BCMA
[13] = target: T3, His-tagged cynomolgous macaque BCMA …; test: BLI, His-tagged cynomolgus BCMA on HIS1K tip; R2 0.9552
[14] = target: T7, His-tagged human BCMA (Acro Biosystems, …); test: BLI, His-tagged human BCMA on HIS1K tip
[15] = target: T5, human BCMA expressed on cells; test: flow cytometry, H929 cells (BCMA-expressing)
[16] = target: T7, His-tagged human BCMA (Acro Biosystems, …); test: BLI, His-tagged human BCMA on HIS1K tip, no APRIL; R2 0.9928
[17] = target: T7, His-tagged human BCMA (Acro Biosystems, …); test: BLI, His-tagged human BCMA on HIS1K tip; R2 0.9928
[18] = target: T3, His-tagged cynomolgous macaque BCMA …; test: BLI, His-tagged cynomolgus BCMA on HIS1K tip; R2 0.9296
[19] = target: T9, BCMA:APRIL 1:1 (human, UniProt Q02223;O75888); test: BLI, His-tagged human BCMA on tip, then human APRIL 3000 nM, then IgG; R2 0.9805
T9 construct: His-tagged recombinant;recombinant; also called human BCMA after incubation with human APRIL
T9 sequence (receptor, looked up): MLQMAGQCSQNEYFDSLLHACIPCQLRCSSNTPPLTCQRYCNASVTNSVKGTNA
T9 sequence (ligand, looked up): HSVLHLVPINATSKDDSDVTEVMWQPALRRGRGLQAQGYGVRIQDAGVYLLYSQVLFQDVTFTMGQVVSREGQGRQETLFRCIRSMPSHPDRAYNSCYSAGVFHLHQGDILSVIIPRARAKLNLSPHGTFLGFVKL

[20] = target: T7, His-tagged human BCMA (Acro Biosystems, …); test: BLI, His-tagged human BCMA on HIS1K tip; R2 0.9939
[21] = target: T7, His-tagged human BCMA (Acro Biosystems, …); test: BLI, His-tagged human BCMA on HIS1K tip, no APRIL; R2 0.9939
[22] = target: T1, recombinant his-tagged human TACI …; test: ELISA, coated His-tagged human TACI; remark: listed apart in the source
[23] = target: T10, His-tagged mouse BCMA (Acro Biosystems, BCA-M52H3) (mouse, UniProt O88472 1-49); test: BLI, His-tagged mouse BCMA on HIS1K tip; R2 0.2661, below the filing's cut-off of 0.9
T10 construct: Bought protein; not shown: His tag
T10 chain: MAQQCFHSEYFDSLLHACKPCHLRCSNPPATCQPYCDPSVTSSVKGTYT

[24] = target: T7, His-tagged human BCMA (Acro Biosystems, …); test: ELISA, coated His-tagged human BCMA
[25] = target: T7, His-tagged human BCMA (Acro Biosystems, …); test: BLI, His-tagged human BCMA on HIS1K tip, no APRIL; R2 0.9908
[26] = target: T10, His-tagged mouse BCMA (Acro Biosystems, …); test: BLI, His-tagged mouse BCMA on HIS1K tip
[27] = target: T5, human BCMA expressed on cells; test: flow cytometry, HEK293 cells stably expressing human BCMA
[28] = target: T8, cynomolgous macaque BCMA expressed on …; test: flow cytometry, CHOK1 cells transiently expressing cynomolgus BCMA; remark: listed apart in the source
[29] = target: T7, His-tagged human BCMA (Acro Biosystems, …); test: BLI, His-tagged human BCMA on HIS1K tip; R2 0.9908

B1: 1C8-6A3 hIgG1 (antibody, V domains shown)
VH: QVQLVQSGAEVKKPGASVKVSCKASGYTFTNYVMHWVKQKPGQGLEWMGYILPYNDGTKYAQKFQGKVTMTSDKSTSTVYMELSSLTSEDTAVYYCARYDYEGSFDYWGQGTLVTVSS
VL: DIQMTQSPSSLSASVGDRVTITCRASQDISNYLNWYQQKPGKAPKLLMCYTSRLHSGVPSRFSGSGSGTDFTLTISSLEQEDFATYYCQQGNTFPPTFGGGTKVEIKR
notes: also called [94]; hu1C8
EC50 [1]: 1.32 nM
EC50 [2]: 0.005 nM
binding result [3]: binds
binding result [4]: no binding (tested: 3 µg/ml (highest concentration))
EC50 [5]: 0.238 nM
EC50 [6]: 0.028 nM
EC50 [7]: 0.111 nM

B2: 1C8-402 hIgG1 (LALA) (antibody)
heavy: not shown
light: DIQMTQSPSSLSASVGDRVTITCRASQDISNYLSWYQQKPGKAPKLLMRYTSRLHSGVPSRFSGSGSGTDFTLTISSLEQEDFATYYCQQGNLFPPTFGGGTKVEIKRTVAAPSVFIFPPSDEQLKSGTASVVCLLNNFYPREAKVQWKVDNALQSGNSQESVTEQDSKDSTYSLSSTLTLSKADYEKHKVYACEVTHQGLSSPVTKSFNRGEC
notes: also called S1
binding result [8]: binds

B3: 552-LN2-E6 hIgG1 (antibody, V domains shown)
VH: QIQLVQSGPELKKPGETVKISCMASGYTFTDYSVRWVKQAPGKGLEWMGWINTETGEPTYADDFKGRFAFSLETSASTAYLQINNLKNEDTATYFCAISYYYALDYWGHGTSVTVSS
VL: DIVLTQSPASLTVSLGQRATISCRASKSVSTSVYSFLHWYQQKPGQPPKLLIYLASNLESGVPARFSGSGSGTDFTLNIHPVEEEDAATYYCQHSRELPRTFGGGTKLEIKR
notes: Human-mouse chimeric antibody, human IgG1 format; also called [8]
binding result [9]: binds
binding result [10]: no binding (tested: 10 ug/ml)
Cyno BCMA response [11]: 1.55
EC50 (read off the curve) [12]: ~0.08 µg/mL
Kd [13]: 38.5 nM
Human BCMA response [14]: 2.37
EC50 (read off the curve) [15]: ~0.3 µg/mL
Kd [16]: < 0.001 nM
Kd [17]: < 0.001 nM

B4: 552-LN1-F4 hIgG1 (antibody, V domains shown)
VH: QIQLVQSGPELKKPGETVKISCMASGYTFTDYSVRWVKQAPGKGLEWMGWINTETGEPTYAHDFKGRFAFSLETSASTAYLQINNLKDEDTSTYFCAISYYYALDYWGHGTSVTVSS
VL: DIVLTQSPASLTVSLGQRATISCRASKSVSTSGYNFLHWYQQKPGQPPKLLIYLASNLESGAPARFSGSGSGTDFTLNIHPVEEEDAATYYCQHSRELPRTFGGGTKLEIKR
notes: Human-mouse chimeric antibody, human IgG1 format; also called [7]
Kd [18]: 71 nM
binding result [9]: binds
binding result [10]: no binding (tested: 10 ug/ml)
Kd [19]: 9.61 nM
Cyno BCMA response [11]: 0.918
Kd [20]: < 0.001 nM
Human BCMA response [14]: 2.33
Kd [21]: < 0.001 nM
EC50 (read off the curve) [15]: ~0.2 µg/mL

B5: 539-SP2-H3 hIgG1 (antibody, V domains shown)
VH: EVQLQQSGPELVKPGASVKMSCKASGYTFTSYVIHWVKQKPGQGLEWIGYVLPYNDVIKYNEKFKGKATLTSDKSSSTAYMDLSSLTSEDSAVYYCARWGDFDEGIWFPYWGQGTLVTVSA
VL: DVLMTQTPLSLPVSLGDHASVSCRSSQSIVHTDGNTYLEWYLQKPGQSPKLLIYKVSNRFSGVPDRFSGSGSGTDFTLKISRVEAEDLGVYYCFQGSHVPWTFGGGTKLEIKR
notes: Human-mouse chimeric antibody, human IgG1 format
EC50 (read off the curve) [22]: ~0.7 µg/mL
Kd [23]: 7.25 nM
EC50 (read off the curve) [24]: ~0.01 µg/mL
Kd [25]: < 0.001 nM
Mouse BCMA response [26]: 0.29
EC50 (read off the curve) [27]: ~0.06 µg/mL
binding result [28]: binds
Human BCMA response [14]: 2.36
Kd [29]: < 0.001 nM
